What was measured:
Recombinant hPGRN = molecular target: T1, Recombinant hPGRN (human, UniProt P28799 18-593); assay: ELISA; solid phase binding assay: various dose of Atsttrin or progranulin coated on the plate overnight, biotinylated TNFR2, DR3 or BSA added, detected with avidin-HRP, OD 450 nm; conditions: both partners purified
T1 construct: human progranulin, recombinant; also called Progranulin; source: bought: Adipogen (Cat. No. AG-40A-0188)
T1 sequence (looked up): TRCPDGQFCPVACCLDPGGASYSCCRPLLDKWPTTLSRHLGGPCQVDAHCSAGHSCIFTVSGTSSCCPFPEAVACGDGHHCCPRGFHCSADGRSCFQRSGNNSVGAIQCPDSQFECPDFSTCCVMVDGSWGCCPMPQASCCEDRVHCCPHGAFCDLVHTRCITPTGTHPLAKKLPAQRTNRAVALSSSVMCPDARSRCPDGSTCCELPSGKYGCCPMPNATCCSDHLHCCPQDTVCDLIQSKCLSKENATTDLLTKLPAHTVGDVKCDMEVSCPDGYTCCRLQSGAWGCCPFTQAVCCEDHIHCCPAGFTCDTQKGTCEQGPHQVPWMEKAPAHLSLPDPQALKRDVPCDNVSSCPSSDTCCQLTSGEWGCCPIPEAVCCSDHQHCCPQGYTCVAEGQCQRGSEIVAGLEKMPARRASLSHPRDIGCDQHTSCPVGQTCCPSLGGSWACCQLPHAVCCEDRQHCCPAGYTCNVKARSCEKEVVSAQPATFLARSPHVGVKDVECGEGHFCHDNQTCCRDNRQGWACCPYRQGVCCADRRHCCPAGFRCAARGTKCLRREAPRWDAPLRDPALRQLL

[1] = molecular target: T2, Recombinant protein hTL1A (human, UniProt O95150 72-251); assay: ELISA; solid phase inhibition assay: 100 ng of TNFa or TL1A coated overnight, 100 ng of TNFR2 or DR3 added together with various dose of Atsttrin, bound receptor detected by anti-TNFR2 or anti-DR3 antibody and HRP secondary antibody; conditions: both partners purified
T2 construct: human TL1A, recombinant; also called TNF-Like Ligand 1A; source: bought: R&D system (Cat# 1319-TL-010)
T2 sequence (looked up): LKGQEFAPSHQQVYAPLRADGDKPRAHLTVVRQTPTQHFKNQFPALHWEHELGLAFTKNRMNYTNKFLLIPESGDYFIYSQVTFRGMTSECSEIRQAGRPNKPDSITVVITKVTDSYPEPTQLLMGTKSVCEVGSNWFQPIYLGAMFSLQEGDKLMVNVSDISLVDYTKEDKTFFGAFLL

binding result (Recombinant hPGRN): binds | binding result [1]: binds
B1: recombinant extracellular portion of hDR3 (domain or fragment, human, UniProt Q93038 25-199, looked up)
chain: QGGTRSPRCDCAGDFHKKIGLFCCRGCPAGHYLKAPCTEPCGNSTCLVCPQDTFLAWENHHNSECARCQACDEQASQVALENCSAVADTRCGCKPGWFVECQVSQCVSSSPFYCQPCLDCGALHRHTRLLCSRRDTDCGTCLPGFYEHGDGCVSCPTSTLGSCPERCAAVCGWRQ
modifications: biotinylated (site not stated) in the direct solid phase binding assay; biotin is not mentioned for the inhibition assay
notes: human DR3 (TNFRSF25), recombinant extracellular portion; As I recall, this catalogue item is an Fc chimera; also called DR3 extracellular portion; TNFRSF25; source: bought: R&D system (Cat# 943-D3-050)
